What was measured:
[1] = biological target: AF594-UBE2W~AF488-Ub conjugate, Q96B02
[2] = biological target: AF594-UBE2N~AF488-Ub/UBE2V2 conjugate, P61088
Sequence of AF594-UBE2N~AF488-Ub/UBE2V2 conjugate, P61088 (P61088 whole entry, looked up): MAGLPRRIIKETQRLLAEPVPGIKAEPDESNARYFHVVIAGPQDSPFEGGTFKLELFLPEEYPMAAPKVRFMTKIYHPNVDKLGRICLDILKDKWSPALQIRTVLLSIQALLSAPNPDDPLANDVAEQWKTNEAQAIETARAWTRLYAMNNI

Sequence of AF594-UBE2W~AF488-Ub conjugate, Q96B02 (Q96B02 whole entry, looked up): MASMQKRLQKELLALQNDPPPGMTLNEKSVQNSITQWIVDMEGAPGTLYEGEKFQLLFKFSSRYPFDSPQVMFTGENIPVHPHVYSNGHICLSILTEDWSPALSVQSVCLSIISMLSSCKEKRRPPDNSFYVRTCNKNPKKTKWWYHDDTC

| Protein | E3 activity (initial slope of Michaelis-Menten curve of FRET decay amplitude), FRET ubiquitin discharge assay [1] | E3 activity (kcat/Km) for ubiquitin discharge, FRET ubiquitin discharge assay [2] | E3 activity per RING monomer for ubiquitin discharge, FRET ubiquitin discharge assay [2] |
| --- | --- | --- | --- |
| R3-I77R, trimeric RING-foldon construct of rhesus monkey TRIM5alpha with the I77R mutation (protein) ASGILLNVKEEVTCPICLELLTEPLSLHCGHSFCQACITANHKKSMLYKEGERSCPVCRISYQPENIQPNRHVANRVEKLREVKLSPEEGQKVDGYIPEAPRDGQAYVRKDGEWVFLSTFLHHHHHH | the R3-177R and R1-177R constructs retained less than 10% of the R3-WT and R1-WT E3 activity, respectively | catalysis of ubiquitin discharge from the UBE2N/V2-Ub conjugate is virtually abolished by the I77R mutation in the R1-177R and R3-177R constructs |  |
| R3-WT, trimeric RING construct of rhesus monkey TRIM5alpha fused to T4 fibritin foldon (protein) ASGILLNVKEEVTCPICLELLTEPLSLHCGHSFCQACITANHKKSMLYKEGERSCPVCRISYQPENIQPNRHVANIVEKLREVKLSPEEGQKVDGYIPEAPRDGQAYVRKDGEWVFLSTFLHHHHHH | significantly higher activity of the R3-WT construct in comparison to R2-WT |  | the E3 activity per RING monomer is lower in the R3-WT construct than in R2-WT |
| R1-I77R, RING domain construct of rhesus monkey TRIM5alpha with the I77R mutation (protein) ASGILLNVKEEVTCPICLELLTEPLSLHCGHSFCQACITANHKKSMLYKEGERSCPVCRISYQPENIQPNRHVANRVEKLREVKLSPEE | the R3-177R and R1-177R constructs retained less than 10% of the R3-WT and R1-WT E3 activity, respectively | catalysis of ubiquitin discharge from the UBE2N/V2-Ub conjugate is virtually abolished by the I77R mutation in the R1-177R and R3-177R constructs |  |
| R2-WT, tandem RING dimer construct of rhesus monkey TRIM5alpha (protein) ASGILLNVKEEVTCPICLELLTEPLSLHCGHSFCQACITANHKKSMLYKEGERSCPVCRISYQPENIQPNRHVANIVEKLRGSASGILLNVKEEVTCPICLELLTEPLSLHCGHSFCQACITANHKKSMLYKEGERSCPVCRISYQPENIQPNRHVANIVEKLREVKLSPEEGQ |  | The E3 activity of the R2-WT is also significantly higher than that of the R1-WT |  |

— US20260185137
